Measurements published in patent EP4177273A1.

Legend:
[1] = biological target: human Claudin 18 splice variant 2 (CLDN18.2) (human); assay: FACS with FITC-labeled IMAB362 on Patu8902-LVT cells 2 days after transduction with human CLDN18.2
[2] = biological target: human Claudin 18 splice variant 2 (CLDN18.2) (human); assay: FACS with FITC-labeled IMAB362 on MiaPaCa-2-LVT cells 2 days after transduction with human CLDN18.2
[3] = biological target: human Claudin 18 splice variant 2 (CLDN18.2) (human); assay: FACS with FITC-labeled IMAB362 on HPAC-LVT cells 2 days after transduction with human CLDN18.2
[4] = biological target: human Claudin 18 splice variant 2 (CLDN18.2) (human); assay: cell-based or functional assay
[5] = biological target: human Claudin 18 splice variant 2 (CLDN18.2) (human); assay: FACS, 2E5 Panc05.04 cells/100 µl stained with 50 µg/ml IMAB362
[6] = biological target: human Claudin 18 splice variant 2 (CLDN18.2) (human); assay: FACS with FITC-labeled IMAB362 on Suit2-LVT cells 2 days after transduction with human CLDN18.2
[7] = biological target: human Claudin 18 splice variant 2 (CLDN18.2) (human); assay: FACS with FITC-labeled IMAB362 on BxPC3-LVT cells 2 days after transduction with human CLDN18.2
[8] = biological target: human Claudin 18 splice variant 2 (CLDN18.2) (human); assay: FACS with FITC-labeled IMAB362 on CAPAN1-LVT cells 2 days after transduction with human CLDN18.2
[9] = biological target: human Claudin 18 splice variant 2 (CLDN18.2) (human); assay: FACS with FITC-labeled IMAB362 on YAPC-LVT cells 2 days after transduction with human CLDN18.2
[10] = biological target: human Claudin 18 splice variant 2 (CLDN18.2) (human); assay: FACS with FITC-labeled IMAB362 on DANG-LVT cells 2 days after transduction with human CLDN18.2
[11] = biological target: human Claudin 18 splice variant 2 (CLDN18.2) (human); assay: FACS, 2E5 Patu8988S cells/100 µl stained with 50 µg/ml IMAB362

Transduction efficiency (% cells positive) [1]: 93%
Transduction efficiency (% cells positive) [2]: 96.3%
Transduction efficiency (% cells positive) [3]: 97.3%
ADCC EC50 (ng/ml), BxPC3 LVT cells, human PBMC E:T 40:1 [4]: 47.7 ng/mL
ADCC EC50 (ng/ml), CAPAN1-LVT cells, human PBMC E:T 40:1 [4]: 65 ng/mL
ADCC EC50 (ng/ml), DANG cells (endogenous CLDN18.2), human PBMC E:T 40:1 [4]: 4980 ng/mL
ADCC EC50 (ng/ml), DANG-LVT cells, human PBMC E:T 40:1 [4]: 52.3 ng/mL
ADCC EC50 (ng/ml), HPAC-LVT cells, human PBMC E:T 40:1 [4]: 117 ng/mL
ADCC EC50 (ng/ml), MiaPaCa2-LVT cells, human PBMC E:T 40:1 [4]: 23.4 ng/mL
ADCC EC50 (ng/ml), Panc05.04 cells (endogenous CLDN18.2), human PBMC E:T 40:1 [4]: 5730 ng/mL
ADCC EC50 (ng/ml), Patu8902-LVT cells, human PBMC E:T 40:1 [4]: 49.2 ng/mL
ADCC EC50 (ng/ml), Patu8988S cells (endogenous CLDN18.2), human PBMC E:T 40:1 [4]: 175 ng/mL
ADCC EC50 (ng/ml), Suit2-LVT cells, human PBMC E:T 40:1 [4]: 73.2 ng/mL
ADCC EC50 (ng/ml), YAPC-LVT cells, human PBMC E:T 40:1 [4]: 29.5 ng/mL
ADCC EC50, DANG/Panc05.04 cells, PBMCs of different donors [4]: 0.1 to 38 µg/mL
ADCC EC50, Patu8988S cells, PBMCs of different donors [4]: 0.01 to 1.4 µg/mL
ADCC Max. lysis (%), BxPC3 LVT cells, human PBMC E:T 40:1 [4]: 90.6%
ADCC Max. lysis (%), CAPAN1-LVT cells, human PBMC E:T 40:1 [4]: 92.6%
ADCC Max. lysis (%), DANG cells (endogenous CLDN18.2), human PBMC E:T 40:1 [4]: 52.5%
ADCC Max. lysis (%), DANG-LVT cells, human PBMC E:T 40:1 [4]: 85.9%
ADCC Max. lysis (%), HPAC-LVT cells, human PBMC E:T 40:1 [4]: 76.2%
ADCC Max. lysis (%), MiaPaCa2-LVT cells, human PBMC E:T 40:1 [4]: 78.1%
ADCC Max. lysis (%), Panc05.04 cells (endogenous CLDN18.2), human PBMC E:T 40:1 [4]: 67.1%
ADCC Max. lysis (%), Patu8902-LVT cells, human PBMC E:T 40:1 [4]: 74.1%
ADCC Max. lysis (%), Patu8988S cells (endogenous CLDN18.2), human PBMC E:T 40:1 [4]: 70.1%
ADCC Max. lysis (%), Suit2-LVT cells, human PBMC E:T 40:1 [4]: 81.2%
ADCC Max. lysis (%), YAPC-LVT cells, human PBMC E:T 40:1 [4]: 91.5%
CDC EC50 (ng/ml), CAPAN1-LVT cells, human serum pool [4]: 970 ng/mL
CDC EC50 (ng/ml), MiaPaCa2-LVT cells, human serum pool [4]: 340 ng/mL
CDC EC50 (ng/ml), Patu8902-LVT cells, human serum pool [4]: 291 ng/mL
CDC EC50, MiaPaCa-2-LVT cells pretreated with gemcitabine [4]: 4.68 µg/mL
CDC EC50, MiaPaCa-2-LVT, Suit2-LVT and CAPAN1-LVT cells, human serum [4]: 0.3 to 2.6 µg/mL
CDC EC50, medium cultivated MiaPaCa-2-LVT cells [4]: 7.67 µg/mL
CDC Max. lysis (%), CAPAN1-LVT cells, human serum pool [4]: 79.1%
CDC Max. lysis (%), MiaPaCa2-LVT cells, human serum pool [4]: 78.4%
CDC Max. lysis (%), Patu8902-LVT cells, human serum pool [4]: 76.7%
CLDN18 surface expression (FACS), % positive cells [5]: 15%
Transduction efficiency (% cells positive) [6]: 92.2%
Transduction efficiency (% cells positive) [7]: 92.8%
Transduction efficiency (% cells positive) [8]: 89.6%
Transduction efficiency (% cells positive) [9]: 82.2%
Transduction efficiency (% cells positive) [10]: 87.5%
CLDN18 surface expression (FACS), % positive cells [11]: 81.7%
Substance: IMAB362 (antibody)
